Assay results reported in patent US20250263500A1 (BEIJING KANGHONG BIOMEDICAL, published 2025).
Positions count from the first letter of the chain named.

T1: CD24 (human, UniProt P25063 27-59)
T1 chain (looked up): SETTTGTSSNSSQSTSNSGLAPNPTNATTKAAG

B1: KH01 (antibody, mouse IgG2a, kappa, V domains shown)
VH: DVQLQESGPDLVKPSQSLSLTCTVTGHSITRGYSWHWIRQFPGNKLEWMGYIHHRGTTNYNPSLKSRISFTRDTSKNQFFLQLNSLTTEDTATYFCSRGTNSAFDYWGQGTTLTVSS
VL: DIQMTQTTSSLSASLGDRVTISCRASQDISNYLNWYQQKPDGTVKLLIYYTSRLHSGVPSRFSGSGSGTDYSLTISNLEQEDIATYFCQQGNTLPHTFGGGTKLEIKR
B2: KH33 (antibody, mouse IgG2a, kappa, V domains shown)
VH: B1 VH
VL: QIVLTQSPAIMSASPGEKVTMTCSASSSISYMHWYQQKPGTSPKRWIYDTSKLASGVPARFSGSGSGTSYSLTISSMEAEDAATYYCHQRSSYPCTFGGGTKLEIKR
B3: KH29 (antibody, mouse IgG2b, kappa, V domains shown)
VH: B1 VH with S66N
VL: DIVMSQSPSSLAVSVGEKVTLNCKSSQSLLYSKNQKNYSAWYQQKPGQSPKLLIYWASTRESGVPDRFTGSGSGTDFTLTISSVKAEDLAVYYCQQYYIYPLTFGAGTKLELKR
B4: KH05 (antibody, mouse IgG2b, kappa, V domains shown)
VH: B1 VH with R31N, R55S, T57S, F95Y, S97L, N101D, S102R, A103S
VL: B3 VL with A12V, V19I, T20S, L21M, N22S, K33N, S39L, K45I, A106S, L112I
B5: KH21 (antibody, mouse IgG2a, kappa, V domains shown)
VH: B1 VH
VL: DIVMSQSPSSLTVSVGEKITMSCKSSQSLLYSSDQKNYLAWYQQNPGQSPKLLIYWASTKASGVPDRFTGSGSGTDFTLTISSVKAEDLAVYYCQQYYIYPLTFGSGTKLEIKR
B6: KH10 (antibody, mouse IgG2a, kappa, V domains shown)
VH: B1 VH with T57S
VL: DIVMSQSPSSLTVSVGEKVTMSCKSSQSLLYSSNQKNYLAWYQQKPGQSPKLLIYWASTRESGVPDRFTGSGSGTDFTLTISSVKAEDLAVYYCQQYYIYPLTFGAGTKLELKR
B7: KH04 (antibody, mouse IgG2a, kappa, V domains shown)
VH: B1 VH with T57S, S97L
VL: B5 VL
B8: KH25 (antibody, mouse IgG2b, kappa, V domains shown)
VH: B1 VH with T57S
VL: B5 VL with T12V, T20S, S33N, D34N, N45I, K60R, A61E
B9: KH19 (antibody, mouse IgG2b, kappa, V domains shown)
VH: B1 VH with R31N, R55S, T57S, F95Y, S97L, N101D, S102R, A103S
VL: DIVMSQSPSSLAVSVGEKVTVSCKSSQSLLYSSDQKNYLTWYQQKPGQSPKLLIYWASTRESGVPDRFTGGGSGTDFTLTISSVRAEDLAVYYCQQYFIYPFTFGSGTKLEIKR
B10: KH03 (antibody, mouse IgG2a, kappa, V domains shown)
VH: B1 VH with T57S
VL: B5 VL with K60R, V91I
B11: KH14 (antibody, mouse IgG2b, kappa, V domains shown)
VH: B1 VH with R31N, R55S, T57S, F95Y, S97L, N101D, S102R, A103S
VL: B5 VL with T12A, K18N, S22T, S33N, D34N, A40T, K60R, A61E, L102F
B12: KH16 (antibody, mouse IgG2a, kappa, V domains shown)
VH: DVQLQESGPDLVKPSQSLSLTCTVTGYSITSGYTWHWIRQFPGNKLEWMGYIQYSGSTNYNPSLKSRISFTRDTSKNQFFLQLNSVTTEDTATYYCARGTTGGLDYWGQGTTLTVSS
VL: B5 VL
B13: KH12 (antibody, mouse IgG2a, kappa, V domains shown)
VH: DVQLQESGPDLVKPSHSFSLTCTVTGYSITRGYSWHWIRQFPGNKLEWMGYIHYSGNTNYNPSLKSRFSFTRDTSKNQFFLNLTSLTSEDTATYYCSRGSTWAFDHWGQGTILTVSS
VL: B9 VL with A12T, V21M, E61Y, G71S, R85K, F98Y
B14: KH27 (antibody, mouse IgG2b, kappa, V domains shown)
VH: B12 VH with S31R, Y54F, N59K, I68F, F70I, G102T, G103A, T112S, L113V
VL: B3 VL with V15I, L21M, K24Q, K33S, S39L, A40V, Y55H, L102F, A106S, L112I
B15: KH02 (antibody, mouse IgG2a, kappa, V domains shown)
VH: B13 VH with F18L, N57S, F68I
VL: B5 VL with T12A, S33N, D34N, N45I, W56L, K60R, A61E, Y98F, L102M, T103S
B16: KH06 (antibody, V domains shown)
VH: DVQLQESGPDLVNPSQSLSLTCTVTGYSISRGYSWHWLRRFPGNKLEWMGFIHYSGTTNYNPSLKSRISFTRDTSKNQFFLQLNSLTTEDTATYYCLRGTDRSFDYWGQGTTLTVSS
VL: B5 VL with T12V, T20S, S33N, D34N, N45I, K60R, A61E
B17: KH07 (antibody, mouse IgG2b, kappa, V domains shown)
VH: DVQLQESGPDLEKPSQSLSLTCTVTGYSITRGYSWHWIRQFPGNKLEWMGYIHYSGSTKYNPSLKSRVSFTRDTSKNQFFLQLNSLSPEDTATYYCSRGSDRAFDYWGQGTTLTVSS
VL: B3 VL with V15I, L21M, K24Q, K33N, S39L, A40V, Y55H, L102F, A106S, L112I

Target: T1, CD24
Assay: cell-based or functional assay

Row | Phagocytosis rate % (A549 tumor cells by human PBMC-derived M2 macrophages, antibody 5 µg/ml) | Binder
1 | 11.8% | B1
2 | 18.3% | B2
3 | 8.95% | B3
4 | 10.4% | B4
5 | 10.2% | B5
6 | 12.1% | B6
7 | 12.8% | B7
8 | 11% | B8
9 | 10.3% | B9
10 | 11.9% | B10
11 | 11.2% | B11
12 | 12.3% | B12
13 | 11.1% | B13
14 | 10.6% | B14
15 | 10.3% | B15
16 | 10.9% | B16
17 | 10.1% | B17

Target: T1, CD24
Assay: cell-based or functional assay
Remark: another data set of the same source

Row | Phagocytosis rate (%) (MCF-7 tumor cells by human PBMC-derived M2 macrophages, antibody 5 µg/ml) | Binder
18 | 6.2% | B1
19 | 3.2% | B4
20 | 6.5% | B8
21 | 3.6% | B10
22 | 3.4% | B11
23 | 6.8% | B12
24 | 3% | B15
25 | 4.3% | B16
